{"source": "patent US8106168B2", "about": "“Metalloproteinase binding proteins” (Dyax Corp., priority 2005, dated 2012)", "key": {"MMP-2": {"molecular_target": "T1, MMP-2 (Homo sapiens, UniProt P08253)", "T1 sequence (P08253 110-660)": "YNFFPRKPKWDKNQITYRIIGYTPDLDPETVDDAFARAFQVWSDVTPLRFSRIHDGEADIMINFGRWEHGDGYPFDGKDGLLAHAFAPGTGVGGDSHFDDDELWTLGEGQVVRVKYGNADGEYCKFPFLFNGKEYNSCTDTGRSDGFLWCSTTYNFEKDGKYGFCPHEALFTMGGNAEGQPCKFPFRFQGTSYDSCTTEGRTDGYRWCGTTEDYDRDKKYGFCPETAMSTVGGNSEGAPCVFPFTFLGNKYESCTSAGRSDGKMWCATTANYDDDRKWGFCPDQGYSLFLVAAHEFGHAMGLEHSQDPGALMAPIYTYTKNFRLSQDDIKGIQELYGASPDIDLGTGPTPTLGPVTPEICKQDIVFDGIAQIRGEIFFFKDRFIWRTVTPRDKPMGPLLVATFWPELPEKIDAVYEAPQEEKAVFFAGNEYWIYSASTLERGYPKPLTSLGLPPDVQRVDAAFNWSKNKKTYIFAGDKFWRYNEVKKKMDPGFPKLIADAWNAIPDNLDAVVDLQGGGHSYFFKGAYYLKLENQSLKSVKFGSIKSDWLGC", "assay": "Cross-reactivity of anti-MMP-14 IgGs, enzymatic activity: MMP-2", "format": "biochemical", "conditions": "1 μM anti-MMP-14 IgG", "method": "(§1) The cross-reactivity of exemplary anti-MMP-14 IgGs and Fabs with other human MMPs and TACE (TNF-alpha converting enzyme) was examined. MMP and TACE enzymatic activity was monitored in the absence and presence of 1 μM anti-MMP-14 IgG antibody. Inhibition (Y) of activity ranged from approximately 50-80% of the reaction rate observed in the absence of antibody. “X” indicates no inhibition was observed. Cross-reactivity was not determined for MMP-17 because protein activity could not be detected.\n(§2) For the studies summarized in Table 12, six anti-MMP-14 IgGs were selected for cross-reactivity testings: M0043-G02, M0040-A06, M0037-D01, M037-C09, M0038-F01, M0033-H07."}, "MMP-3": {"molecular_target": "MMP-3 (Homo sapiens, UniProt P08254)", "sequence (P08254 100-477)": "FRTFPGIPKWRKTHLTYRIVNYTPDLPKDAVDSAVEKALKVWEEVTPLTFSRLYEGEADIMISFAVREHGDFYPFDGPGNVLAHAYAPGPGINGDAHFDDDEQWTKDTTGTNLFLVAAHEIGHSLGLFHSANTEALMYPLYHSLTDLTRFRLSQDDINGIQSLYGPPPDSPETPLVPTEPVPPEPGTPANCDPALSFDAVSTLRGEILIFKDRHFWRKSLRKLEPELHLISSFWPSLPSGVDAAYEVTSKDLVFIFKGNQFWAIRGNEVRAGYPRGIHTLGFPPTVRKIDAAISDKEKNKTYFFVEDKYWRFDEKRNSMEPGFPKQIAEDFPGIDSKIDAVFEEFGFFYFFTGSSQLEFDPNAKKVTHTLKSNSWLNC", "assay": "Cross-reactivity of anti-MMP-14 IgGs, enzymatic activity: MMP-3", "format": "biochemical", "conditions": "1 μM anti-MMP-14 IgG", "method": "as §1, §2"}, "MMP-7": {"molecular_target": "T2, MMP-7 (Homo sapiens, UniProt P09237)", "T2 sequence (P09237 95-267)": "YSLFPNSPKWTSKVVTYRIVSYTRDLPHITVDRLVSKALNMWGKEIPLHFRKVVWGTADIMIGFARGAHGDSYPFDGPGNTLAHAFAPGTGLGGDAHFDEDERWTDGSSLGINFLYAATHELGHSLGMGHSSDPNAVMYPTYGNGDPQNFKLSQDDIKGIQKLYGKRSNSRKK", "assay": "Cross-reactivity of anti-MMP-14 IgGs, enzymatic activity: MMP-7", "format": "biochemical", "conditions": "1 μM anti-MMP-14 IgG", "method": "as §1, §2"}, "MMP-8": {"molecular_target": "MMP-8 (Homo sapiens, UniProt P22894)", "sequence (P22894 101-467)": "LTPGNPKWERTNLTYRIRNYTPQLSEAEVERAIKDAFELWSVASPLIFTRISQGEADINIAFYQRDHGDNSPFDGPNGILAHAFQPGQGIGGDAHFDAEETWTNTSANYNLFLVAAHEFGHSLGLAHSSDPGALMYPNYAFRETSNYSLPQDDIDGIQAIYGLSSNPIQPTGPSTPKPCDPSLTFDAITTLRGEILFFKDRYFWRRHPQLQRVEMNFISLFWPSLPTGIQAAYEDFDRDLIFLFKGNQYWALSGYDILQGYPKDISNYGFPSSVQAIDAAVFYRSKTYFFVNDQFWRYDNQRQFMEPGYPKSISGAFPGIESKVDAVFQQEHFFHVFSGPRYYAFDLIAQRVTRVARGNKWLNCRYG", "assay": "Cross-reactivity of anti-MMP-14 IgGs, enzymatic activity: MMP-8", "format": "biochemical", "conditions": "1 μM anti-MMP-14 IgG", "method": "as §1, §2"}, "MMP-9": {"molecular_target": "MMP-9 (Homo sapiens, UniProt P14780)", "sequence (P14780 94-707)": "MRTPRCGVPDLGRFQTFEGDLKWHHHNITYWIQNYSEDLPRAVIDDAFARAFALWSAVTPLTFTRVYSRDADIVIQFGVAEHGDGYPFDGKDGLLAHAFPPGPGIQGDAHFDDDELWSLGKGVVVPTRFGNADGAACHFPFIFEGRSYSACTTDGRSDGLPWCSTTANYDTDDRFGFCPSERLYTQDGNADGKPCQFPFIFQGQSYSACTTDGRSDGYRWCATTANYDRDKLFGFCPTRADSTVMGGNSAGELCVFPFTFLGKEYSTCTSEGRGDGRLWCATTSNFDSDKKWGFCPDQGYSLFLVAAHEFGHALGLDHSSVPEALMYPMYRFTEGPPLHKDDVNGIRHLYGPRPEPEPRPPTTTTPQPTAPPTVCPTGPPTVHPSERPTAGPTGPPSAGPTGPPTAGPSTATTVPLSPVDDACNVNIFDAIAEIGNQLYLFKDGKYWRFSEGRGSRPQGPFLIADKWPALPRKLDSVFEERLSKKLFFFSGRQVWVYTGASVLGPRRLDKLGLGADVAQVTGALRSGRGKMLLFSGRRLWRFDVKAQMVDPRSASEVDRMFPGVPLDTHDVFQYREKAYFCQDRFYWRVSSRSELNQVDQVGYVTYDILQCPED", "assay": "Cross-reactivity of anti-MMP-14 IgGs, enzymatic activity: MMP-9", "format": "biochemical", "conditions": "1 μM anti-MMP-14 IgG", "method": "as §1, §2"}, "MMP-12": {"molecular_target": "MMP-12 (Homo sapiens, UniProt P39900)", "sequence (P39900 106-470)": "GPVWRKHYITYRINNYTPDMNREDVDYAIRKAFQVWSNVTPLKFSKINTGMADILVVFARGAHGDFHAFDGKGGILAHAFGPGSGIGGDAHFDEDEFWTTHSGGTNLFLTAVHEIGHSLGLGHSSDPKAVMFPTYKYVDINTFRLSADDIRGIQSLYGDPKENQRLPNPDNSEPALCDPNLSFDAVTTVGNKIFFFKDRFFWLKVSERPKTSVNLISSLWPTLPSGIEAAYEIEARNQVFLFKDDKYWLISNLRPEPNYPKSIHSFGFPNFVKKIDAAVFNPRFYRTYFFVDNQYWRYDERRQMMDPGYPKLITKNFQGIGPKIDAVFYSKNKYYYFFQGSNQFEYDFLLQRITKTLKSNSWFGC", "assay": "Cross-reactivity of anti-MMP-14 IgGs, enzymatic activity: MMP-12", "format": "biochemical", "conditions": "1 μM anti-MMP-14 IgG", "method": "as §1, §2"}, "MMP-13": {"molecular_target": "MMP-13 (Homo sapiens, UniProt P45452)", "assay": "Cross-reactivity of anti-MMP-14 IgGs, enzymatic activity: MMP-13", "format": "biochemical", "conditions": "1 μM anti-MMP-14 IgG", "method": "as §1, §2"}, "MMP-24": {"molecular_target": "MMP-24 (Homo sapiens, UniProt Q9Y5R2)", "sequence (Q9Y5R2 156-645)": "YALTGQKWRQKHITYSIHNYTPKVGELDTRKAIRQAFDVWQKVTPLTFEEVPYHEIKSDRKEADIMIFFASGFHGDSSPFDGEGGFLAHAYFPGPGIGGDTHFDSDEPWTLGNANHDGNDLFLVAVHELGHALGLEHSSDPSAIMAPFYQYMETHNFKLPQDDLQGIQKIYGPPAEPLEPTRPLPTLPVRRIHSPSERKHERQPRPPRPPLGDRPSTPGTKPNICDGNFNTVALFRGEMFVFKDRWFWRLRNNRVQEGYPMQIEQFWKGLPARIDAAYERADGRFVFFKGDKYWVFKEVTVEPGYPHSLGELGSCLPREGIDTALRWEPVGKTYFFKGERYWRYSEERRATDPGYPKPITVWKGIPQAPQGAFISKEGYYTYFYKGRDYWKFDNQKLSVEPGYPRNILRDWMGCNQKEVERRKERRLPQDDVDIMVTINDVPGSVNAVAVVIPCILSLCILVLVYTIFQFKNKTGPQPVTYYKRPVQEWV", "assay": "Cross-reactivity of anti-MMP-14 IgGs, enzymatic activity: MMP-24", "format": "biochemical", "conditions": "1 μM anti-MMP-14 IgG", "method": "as §1, §2"}, "[1]": {"system": "Human umbilical vascular endothelium cells (HUVECs)", "assay": "HUVEC tube formation on […]", "format": "cell-based", "conditions": "1 nM to 250 nM; 18 hours", "method": "Human umbilical vascular endothelium cells (HUVECs) were seeded into […]™ basement membrane extract-coated 96 well plates at 20,000 or 40,000 cells in 100 μl/well. The seeded cells were incubated for 30 minutes, then the various test articles were added (vehicle control, M0038-F01 at concentrations ranging from 1 nM to 250 nM, or suramin 8 mg/ml). The cells were incubated at 37° for 18 hours. 100 μl of calcein solution (8 μg/ml) was added 20 minutes prior to image capture. Tube lengths were also quantified."}, "B16F1 melanoma tumors": {"system": "B16F1 melanoma tumors", "assay": "B16F1 melanoma subcutaneous tumor growth", "format": "in vivo, mouse", "conditions": "M0038-F01 10, 1 or 0.1 mg/kg Q2d IP; doxorubicin 5 mg/kg weekly IP", "text": "B16F1 melanoma cells were implanted into Female C57/BL6 (CR) mice (4-6 Weeks old) mice by subcutaneous injection."}, "[2]": {"system": "B16F1 melanoma lung metastases", "assay": "B16F1 melanoma metastasis model, tail vein injection", "format": "in vivo, mouse", "conditions": "10 mg/kg Q2d IP, 14 days; lungs taken day 15", "method": "MMP-14 binding antibodies were also tested in a model of melanoma metastasis. B16F1 cells were grown in culture, harvested at 85% confluence and inoculated at 5×10^5 cells/mouse in 100 μl saline by tail vein injection. Treatment started on Day 1, post inoculation, for 14 days. […] On day 15, animals were sacrificed and lungs taken, fixed, and analyzed for the number of metastases (nodules)."}, "[3]": {"system": "BT747 breast cancer tumor fragments", "assay": "BT747 breast tumor growth", "format": "in vivo, mouse", "conditions": "small initial tumor size groups; M0038-F01 10, 1 or 0.1 mg/kg Q2d IP; trastuzumab 20 mg/kg", "method": "Fragments (approximately 1 mm^3) of BT747 breast cancer tumor fragments were implanted into the flanks of female HRLN CB.17 SCID mice. […] All groups were dosed by intraperitoneal (IP) injection. Tumor volume was measured biweekly."}, "[4]": {"system": "Streptococcus cell wall (SCW)-induced arthritis, knee joints", "assay": "SCW-induced arthritis, joint swelling", "format": "in vivo, mouse", "conditions": "2, 6 or 10 mg/kg IP at day 13, 16, 20 and 23; technecium uptake", "method": "(§3) Antigen-induced arthritis, a model of rheumatoid arthritis, was induced by intraarticular injection of Streptococcus cell wall (SCW, […]) into the knee joints of C57B16 mice at day 0, 7, 14 and 21.\nMice were assorted into groups of six animals each and treated (by IP injection) with M0038-F01 (2, 6, or 10 mg/kg), a control isotype-matched antibody (control, 20 mg/ml), or etanercept (ENBREL®, 5 mg/ml) at day 13, 16, 20, and 23. Joint swelling (measured by technecium uptake) was measured at day 15, 16, 22, 23 and 28."}, "MMP14": {"molecular_target": "T3, MMP14 (Mus musculus, UniProt P53690)", "T3 construct": "from tissue; host or cells: knee joints of C57Bl6 mice with SCW-induced arthritis (synovial cells, chondrocytes, macrophages)", "assay": "Immunohistochemical staining in acute phase SCW-induced arthritis", "conditions": "7 days after first injection of SCW", "method": "as §3\nMMP14 expression in acute phase SCW-induced arthritis (7 days after the first injection of SCW) was examined by immunohistochemical staining using M0038-F01."}}, "data": [{"molecule": "M0040-A06: human antibody (Fab, IgG) that binds and inhibits MMP-14; HC SEQ ID NO: 162, LC SEQ ID NO: 163 (antibody, V domains shown, Synthetically generated peptide) VH: EVQLLESGGGLVQPGGSLRLSCAASGFTFSYYGMYWVRQAPGKGLEWVSSISSSGGYTDYADSVKGRFTISRDNSKNTLYLQMNSLRAEDTAVYYCARRIKYYDIEGEGAFDIWGQGTMVTVSS VL: QDIVMTQTPPSLPVNPGEPASISCRSSQSLLHRNGYNYLDWYLQKPGQSPQLLIHLGSYRASGVPDRFSGSGSGTDFTLKISRVEAEDVGVYYCMQPLQTPFTFGPGTKVDIK", "values": [{"measurement": "Cross reactivity: inhibition of MMP-2 activity", "setting": "MMP-2", "result": "Y (Inhibition (Y) of activity ranged from approximately 50-80% of the reaction rate observed in the absence of antibody)"}, {"measurement": "Cross reactivity: inhibition of MMP-3 activity", "setting": "MMP-3", "result": "Y (Inhibition (Y) of activity ranged from approximately 50-80% of the reaction rate observed in the absence of antibody)"}, {"measurement": "Cross reactivity: inhibition of MMP-7 activity", "setting": "MMP-7", "result": "Y (Inhibition (Y) of activity ranged from approximately 50-80% of the reaction rate observed in the absence of antibody)"}, {"measurement": "Cross reactivity: inhibition of MMP-8 activity", "setting": "MMP-8", "result": "Y (Inhibition (Y) of activity ranged from approximately 50-80% of the reaction rate observed in the absence of antibody)"}, {"measurement": "Cross reactivity: inhibition of MMP-9 activity", "setting": "MMP-9", "result": "Y (Inhibition (Y) of activity ranged from approximately 50-80% of the reaction rate observed in the absence of antibody)"}, {"measurement": "Cross reactivity: inhibition of MMP-12 activity", "setting": "MMP-12", "result": "Y (Inhibition (Y) of activity ranged from approximately 50-80% of the reaction rate observed in the absence of antibody)"}, {"measurement": "Cross reactivity: inhibition of MMP-13 activity", "setting": "MMP-13", "result": "Y (Inhibition (Y) of activity ranged from approximately 50-80% of the reaction rate observed in the absence of antibody)"}, {"measurement": "Cross reactivity: inhibition of MMP-24 activity", "setting": "MMP-24", "result": "Y (Inhibition (Y) of activity ranged from approximately 50-80% of the reaction rate observed in the absence of antibody)"}]}, {"molecule": "M0043-G02: human antibody (Fab, IgG) that binds and inhibits MMP-14; HC SEQ ID NO: 166, LC SEQ ID NO: 167 (antibody, V domains shown, Synthetically generated peptide) VH: EVQLLESGGGLVQPGGSLRLSCAASGFTFSWYPMFWVRQAPGKGLEWVSGIYSSGGPTDYADSVKGRFTISRDNSKNTLYLQMNSLRAEDTAVYYCAKDTLGRYYDFWSGYSYGMDVWGQGTTVTVSS VL: QDIQMTQSPGTLSLSPGERATLSCRASQSVSSSYLAWYQQKPGQAPRLLIYGASSRATGIPDRFSGSGSGTDFTLTISRLEPEDFAVYYCQSGVTFGGGTKVEIK", "values": [{"measurement": "Cross reactivity: inhibition of MMP-2 activity", "setting": "MMP-2", "result": "Y (Inhibition (Y) of activity ranged from approximately 50-80% of the reaction rate observed in the absence of antibody)"}, {"measurement": "Cross reactivity: inhibition of MMP-9 activity", "setting": "MMP-9", "result": "Y (Inhibition (Y) of activity ranged from approximately 50-80% of the reaction rate observed in the absence of antibody)"}, {"measurement": "Cross reactivity: inhibition of MMP-12 activity", "setting": "MMP-12", "result": "Y (Inhibition (Y) of activity ranged from approximately 50-80% of the reaction rate observed in the absence of antibody)"}, {"measurement": "Cross reactivity: inhibition of MMP-13 activity", "setting": "MMP-13", "result": "Y (Inhibition (Y) of activity ranged from approximately 50-80% of the reaction rate observed in the absence of antibody)"}, {"measurement": "Cross reactivity: inhibition of MMP-24 activity", "setting": "MMP-24", "result": "Y (Inhibition (Y) of activity ranged from approximately 50-80% of the reaction rate observed in the absence of antibody)"}]}, {"molecule": "M0038-F01: human antibody (Fab, IgG) that binds and inhibits MMP-14; HC SEQ ID NO: 156, LC SEQ ID NO: 157 (antibody, V domains shown, Synthetically generated peptide) VH: EVQLLESGGGLVQPGGSLRLSCAASGFTFSLYSMNWVRQAPGKGLEWVSSIYSSGGSTLYADSVKGRFTISRDNSKNTLYLQMNSLRAEDTAVYYCARGRAFDIWGQGTMVTVSS VL: QDIQMTQSPSSLSAFVGDKVTITCRASQSVGTYLNWYQQKAGKAPELLIYATSNLRSGVPSRFSGSGSGTDFTLTINTLQPEDFATYYCQQSYSIPRFTFGPGTKVDIK", "values": [{"measurement": "tube formation", "setting": "[1]", "result": "dose-dependently inhibits tube formation"}, {"measurement": "tumor growth", "setting": "B16F1 melanoma tumors", "result": "effective in reducing tumor growth"}, {"measurement": "number of lung melanoma tumors (nodules)", "setting": "[2]", "result": "substantially reduced the number of lung melanoma tumors"}, {"measurement": "tumor growth", "setting": "[3]", "result": "inhibition of tumor growth"}, {"measurement": "joint swelling", "setting": "[4]", "result": "did not have an effect"}, {"measurement": "immunohistochemical staining of joint tissue", "setting": "MMP14", "result": "strongly stained synovial cells and chondrocytes, as well as macrophages in joint exudate"}]}]}
